Experimental data taken from the Human Domainome abundance scans (Beltran et al. 2025).
± gives the uncertainty stated by the source.

B1: Dynamin-binding protein, residues 242 to 304; numbered along this chain, Q6XZF7 (parent)
chain: EEPGTYGVALYRFQALEPNELDFEVGDKIRILATLEDGWLEGSLKGRTGIFPYRFVKLCPDTR

Variants of: B1
Assay: abundance fitness (aPCA) (normalised: wild type 0, dead -1); higher = more abundant; growth selection in yeast, the domain comes from the species named
Conditions: Homo sapiens

Variant | abundance fitness
EEPGTYGVALYRFQALEPNELDFEVGDKIRILATLEDGWLEGSLKGRTGIFPYRFVKLCPDCR [T62C] | -0.198 ± 0.062
EEPGTYGVALYRFQALEPNELDFEVGDKIRILATLEDGWLEGSLKGRTGIFPYRFVKLCPDAR [T62A] | -0.022 ± 0.057
EEPGTYGVALYRFQALEPNELDFEVGDKIRILATLEDGWLEGSLKGRTGIFPYRFVKLCPDFR [T62F] | -0.137 ± 0.057
EEPGTYGVALYRFQALEPNELDFEVGDKIRILATLEDGWLEGSLKGRTGIFPYRFVKLCPDDR [T62D] | 0.021 ± 0.051
EEPGTYGVALYRFQALEPNELDFEVGDKIRILATLEDGWLEGSLKGRTGIFPYRFVKLCPDER [T62E] | -0.004 ± 0.17
EEPGTYGVALYRFQALEPNELDFEVGDKIRILATLEDGWLEGSLKGRTGIFPYRFVKLCPGTR [D61G] | -0.063 ± 0.06
EEPGTYGVALYRFQALEPNELDFEVGDKIRILATLEDGWLEGSLKGRTGIFPYRFVKLCPHTR [D61H] | -0.145 ± 0.059
EEPGTYGVALYRFQALEPNELDFEVGDKIRILATLEDGWLEGSLKGRTGIFPYRFVKLCPCTR [D61C] | -0.112 ± 0.058
EEPGTYGVALYRFQALEPNELDFEVGDKIRILATLEDGWLEGSLKGRTGIFPYRFVKLCPLTR [D61L] | -0.185 ± 0.054
EEPGTYGVALYRFQALEPNELDFEVGDKIRILATLEDGWLEGSLKGRTGIFPYRFVKLCPITR [D61I] | -0.237 ± 0.06
EEPGTYGVALYRFQALEPNELDFEVGDKIRILATLEDGWLEGSLKGRTGIFPYRFVKLCPYTR [D61Y] | -0.391 ± 0.057
EEPGTYGVALYRFQALEPNELDFEVGDKIRILATLEDGWLEGSLKGRTGIFPYRFVKLCPWTR [D61W] | -0.195 ± 0.1
EEPGTYGVALYRFQALEPNELDFEVGDKIRILATLEDGWLEGSLKGRTGIFPYRFVKLCPTTR [D61T] | -0.08 ± 0.077
EEPGTYGVALYRFQALEPNELDFEVGDKIRILATLEDGWLEGSLKGRTGIFPYRFVKLCPFTR [D61F] | -0.247 ± 0.047
EEPGTYGVALYRFQALEPNELDFEVGDKIRILATLEDGWLEGSLKGRTGIFPYRFVKLCPKTR [D61K] | -0.096 ± 0.19
EEPGTYGVALYRFQALEPNELDFEVGDKIRILATLEDGWLEGSLKGRTGIFPYRFVKLCPQTR [D61Q] | -0.178 ± 0.14
EEPGTYGVALYRFQALEPNELDFEVGDKIRILATLEDGWLEGSLKGRTGIFPYRFVKLCPMTR [D61M] | -0.144 ± 0.11
EEPGTYGVALYRFQALEPNELDFEVGDKIRILATLEDGWLEGSLKGRTGIFPYRFVKLCPPTR [D61P] | -0.027 ± 0.061
EEPGTYGVALYRFQALEPNELDFEVGDKIRILATLEDGWLEGSLKGRTGIFPYRFVKLCPETR [D61E] | 0.186 ± 0.095
EEPGTYGVALYRFQALEPNELDFEVGDKIRILATLEDGWLEGSLKGRTGIFPYRFVKLCPATR [D61A] | -0.095 ± 0.057
EEPGTYGVALYRFQALEPNELDFEVGDKIRILATLEDGWLEGSLKGRTGIFPYRFVKLCTDTR [P60T] | 0.088 ± 0.07
EEPGTYGVALYRFQALEPNELDFEVGDKIRILATLEDGWLEGSLKGRTGIFPYRFVKLCLDTR [P60L] | -0.434 ± 0.077

Variant | abundance fitness
EEPGTYGVALYRFQALEPNELDFEVGDKIRILATLEDGWLEGSLKGRTGIFPYRFVKLCGDTR [P60G] | 0.003 ± 0.049
EEPGTYGVALYRFQALEPNELDFEVGDKIRILATLEDGWLEGSLKGRTGIFPYRFVKLCEDTR [P60E] | -0.076 ± 0.15
EEPGTYGVALYRFQALEPNELDFEVGDKIRILATLEDGWLEGSLKGRTGIFPYRFVKLCVDTR [P60V] | -0.174 ± 0.053
EEPGTYGVALYRFQALEPNELDFEVGDKIRILATLEDGWLEGSLKGRTGIFPYRFVKLCIDTR [P60I] | -0.18 ± 0.06
EEPGTYGVALYRFQALEPNELDFEVGDKIRILATLEDGWLEGSLKGRTGIFPYRFVKLCADTR [P60A] | -0.059 ± 0.074
EEPGTYGVALYRFQALEPNELDFEVGDKIRILATLEDGWLEGSLKGRTGIFPYRFVKLCRDTR [P60R] | -0.245 ± 0.063
EEPGTYGVALYRFQALEPNELDFEVGDKIRILATLEDGWLEGSLKGRTGIFPYRFVKLCKDTR [P60K] | 0.054 ± 0.11
EEPGTYGVALYRFQALEPNELDFEVGDKIRILATLEDGWLEGSLKGRTGIFPYRFVKLCCDTR [P60C] | -0.15 ± 0.063
EEPGTYGVALYRFQALEPNELDFEVGDKIRILATLEDGWLEGSLKGRTGIFPYRFVKLCWDTR [P60W] | -0.274 ± 0.16
EEPGTYGVALYRFQALEPNELDFEVGDKIRILATLEDGWLEGSLKGRTGIFPYRFVKLCFDTR [P60F] | -0.149 ± 0.061
EEPGTYGVALYRFQALEPNELDFEVGDKIRILATLEDGWLEGSLKGRTGIFPYRFVKLCYDTR [P60Y] | -0.113 ± 0.062
EEPGTYGVALYRFQALEPNELDFEVGDKIRILATLEDGWLEGSLKGRTGIFPYRFVKLCQDTR [P60Q] | 0.087 ± 0.15
EEPGTYGVALYRFQALEPNELDFEVGDKIRILATLEDGWLEGSLKGRTGIFPYRFVKLCMDTR [P60M] | -0.317 ± 0.14
EEPGTYGVALYRFQALEPNELDFEVGDKIRILATLEDGWLEGSLKGRTGIFPYRFVKLCNDTR [P60N] | -0.26 ± 0.066
EEPGTYGVALYRFQALEPNELDFEVGDKIRILATLEDGWLEGSLKGRTGIFPYRFVKLPPDTR [C59P] | -0.546 ± 0.17
EEPGTYGVALYRFQALEPNELDFEVGDKIRILATLEDGWLEGSLKGRTGIFPYRFVKLWPDTR [C59W] | -0.324 ± 0.11
EEPGTYGVALYRFQALEPNELDFEVGDKIRILATLEDGWLEGSLKGRTGIFPYRFVKLRPDTR [C59R] | -0.339 ± 0.062
EEPGTYGVALYRFQALEPNELDFEVGDKIRILATLEDGWLEGSLKGRTGIFPYRFVKLVPDTR [C59V] | 0.024 ± 0.047
EEPGTYGVALYRFQALEPNELDFEVGDKIRILATLEDGWLEGSLKGRTGIFPYRFVKLTPDTR [C59T] | -0.192 ± 0.085
EEPGTYGVALYRFQALEPNELDFEVGDKIRILATLEDGWLEGSLKGRTGIFPYRFVKLYPDTR [C59Y] | 0.007 ± 0.051
EEPGTYGVALYRFQALEPNELDFEVGDKIRILATLEDGWLEGSLKGRTGIFPYRFVKLQPDTR [C59Q] | 0.117 ± 0.13
